Laboratory results as given in publication PMC3531522, “Nasal Colonisation by Staphylococcus aureus Depends upon Clumping Factor B Binding to the Squamous Epithelial Cell Envelope Protein Loricrin” (PLoS Pathogens, 2012).

B2: Recombinant ClfB N2N3 (rClfB_(201–542)) (domain or fragment)
chain: AEPVVNAADAKGTNVNDKVTASNFKLEKTTFDPNQSGNTFMAANFTVTDKVKSGDYFTAKLPDSLTGNGDVDYSNSNNTMPIADIKSTNGDVVAKATYDILTKTYTFVFTDYVNNKENINGQFSLPLFTDRAKAPKSGTYDANINIADEMFNNKITYNYSSPIAGIDKPNGANISSQIIGVDTASGQNTYKQTVFVNPKQRVLGNTWVYIKGYQDKIEESSGKVSATDTKLRIFEVNDTSKLSDSYYADPNDSNLKEVTDQFKNRIYYEHPNVASIKFGDITKTYVVLVEGHYDNTGKNLKTQVIQENVDPVTNRDYSIFGWNNENVVRYGGGSADGDSAVN
notes: Clumping factor B (ClfB) of S. aureus, amino acids 201-542 (subdomains N2 and N3 of the A domain), amplified from plasmid pCU1:clfB; also called ClfB N2N3_(201–542); ClfB N23_(201–542); not shown: His6, N-terminal, kept

Tests used:
Assay in all cases: SPR; BIAcore X100; GST-tagged ligand captured on a CM5 chip coated with goat anti-GST IgG, GST on the reference cell; increasing concentrations of rClfB_(201–542) in PBS passed in succession without regeneration (single cycle); KD from response at equilibrium against concentration
[1] = target: GST-tagged human loricrin loop region 3 (human)
[2] = target: GST-tagged human loricrin loop region 1B (human)
[3] = target: GST-tagged human loricrin loop region 1A (human)
[4] = target: GST-tagged human loricrin loop region 2v (human)
[5] = target: GST-tagged human loricrin loop region 2 (human)
[6] = target: B2; settings: both partners purified
[7] = target: T1, GST-murine loricrin_(1–480) (murine, UniProt P18165 1-486); settings: both partners purified
T1 construct: Loricrin, murine, full length, printed as residues 1-480; The printed length (480) may differ from that of the UniProt entry; also called MLor; GST-MLor; source: DNA codon optimised for E. coli, in pGEX-4T; purified on GSTrap FF; not shown: GST, N-terminal, kept
T1 sequence (looked up): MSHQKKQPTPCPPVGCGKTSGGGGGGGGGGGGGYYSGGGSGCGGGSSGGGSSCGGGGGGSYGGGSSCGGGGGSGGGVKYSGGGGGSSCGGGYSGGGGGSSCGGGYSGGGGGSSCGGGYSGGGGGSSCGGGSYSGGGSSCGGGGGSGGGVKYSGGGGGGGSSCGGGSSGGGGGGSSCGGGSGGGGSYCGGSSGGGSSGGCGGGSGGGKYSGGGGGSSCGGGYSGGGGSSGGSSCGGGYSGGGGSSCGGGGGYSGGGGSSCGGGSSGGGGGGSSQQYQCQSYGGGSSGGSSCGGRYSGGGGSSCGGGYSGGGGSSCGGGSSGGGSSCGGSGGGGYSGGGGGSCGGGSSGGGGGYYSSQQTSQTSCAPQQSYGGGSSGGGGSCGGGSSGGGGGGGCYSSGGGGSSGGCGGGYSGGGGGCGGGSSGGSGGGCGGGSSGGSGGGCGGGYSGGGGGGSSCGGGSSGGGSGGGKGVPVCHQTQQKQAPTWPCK

[8] = target: B2; settings: both partners purified; remark: listed apart in the source

Molecule “Recombinant ClfB N2N3 (rClfB_(201–542)) (from UniProt O86476 201-542) (domain or fragment)” has a Kd [1] of 5.47 µM, a Kd [2] of 34.5 µM and a Kd [3] of 16.7 µM. The Kd [4] was 2.21 µM and the Kd [5] was 3.31 µM.

B1: GST-human loricrin_(1–315) (natural protein, UniProt P23490 1-312, looked up)
chain: MSYQKKQPTPQPPVDCVKTSGGGGGGGGSGGGGCGFFGGGGSGGGSSGSGCGYSGGGGYSGGGCGGGSSGGGGGGGIGGCGGGSGGSVKYSGGGGSSGGGSGCFSSGGGGSGCFSSGGGGSSGGGSGCFSSGGGGSSGGGSGCFSSGGGGFSGQAVQCQSYGGVSSGGSSGGGSGCFSSGGGGGSVCGYSGGGSGCGGGSSGGSGSGYVSSQQVTQTSCAPQPSYGGGSSGGGGSGGSGCFSSGGGGGSSGCGGGSSGIGSGCIISGGGSVCGGGSSGGGGGGSSVGGSGSGKGVPICHQTQQKQAPTWPSK
notes: Loricrin, human, full length, printed as residues 1-315 (S1 to K315); also called HLor; Hlor; source: DNA codon optimised for E. coli, in pGEX-4T; purified on GSTrap FF; not shown: GST, N-terminal, kept
Work on B1 yielded a Kd [6] of 4.33 µM.

For B2, the Kd [7] was 15.7 µM.

B3: GST-human K10_(544–563) (peptide)
chain: GGSSGGGSSSGGGYGGGSSS
notes: Cytokeratin 10 (K10), human, residues 544-563 (C-terminal tail region); also called HK10; GST-HK10; source: DNA codon optimised for E. coli, in pGEX-4T; purified on GSTrap FF; not shown: GST, N-terminal, kept
Work on B3 yielded a Kd [6] of 7.89 µM.

B4: GST-murine K10_(454–570) (domain or fragment, UniProt P02535 454-570, looked up)
chain: EGSSSGGGGGRRGGSGGGSYGGSSGGGSYGGSSGGGGSYGGSSGGGGSYGGGSSGGGSHGGSSGGGYGGGSSSGGAGGHGGSSGGGYGGGSSSGGQGGSGGFKSSGGGDQSSKGPRY
notes: Cytokeratin 10 (K10), murine, residues 454-570 (C-terminal tail region); also called MK10; GST-MK10; source: DNA codon optimised for E. coli, in pGEX-4T; purified on GSTrap FF; not shown: GST, N-terminal, kept
In the case of B4, the Kd [6] is reported as 14.4 µM.

B5: GST-Fgα_(316–367) (domain or fragment, UniProt P02671 335-386, looked up)
chain: NSGSSGTGSTGNQNPGSPRPGSTGTWNPGSSERGSAGHWTSESSVSGSTGQW
notes: Fibrinogen α-chain, residues 316-367, repeat domain 5 of the αC region; also called repeat domain 5 of the αC region of Fg
B5 was tested, and the Kd [6] was 5.25 µM and the Kd [8] was 5.52 ± 1.5 µM.
